{
  "source": "the nanobody polyreactivity screen of Harvey et al. (2022)",
  "data": [
    {"experiment": "yeast display, Sf9 membrane polyspecificity reagent, FACS + sequencing; frameworks hold sequencing errors", "how_it_was_run": "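Nanobodies came from a synthetic yeast display library in Saccharomyces cerevisiae BJ5465, induced with galactose for 36–48 hours and stained for 1 hour at 4 °C with 10% biotinylated, detergent-solubilized Sf9 membrane reagent. Cells were enriched on streptavidin microbeads and then FACS-sorted, with low and high (top ~1%) gates set on anti-HA fluorescence for expression and streptavidin fluorescence for reagent binding. Each polyreactivity label reflects the gate a clone came from. Genes were amplified by colony PCR, sequenced by MiSeq 2 × 250 and filtered by CDR length.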", "values": [
      {"sequence": "QVQLVESGGGLVQAGGSLRLSCAASGSTFEVNAMGWYRQAPGKERELVAAISSSAGDTYYADSVKGRFTISRDNAKNTVYLQMNSLKPEDTAVYYCAAKGFPRSGYPYQAQHMYYWGQGTQVTVSS", "polyreactivity (PSR sort gate)": "low polyreactivity"},
      {"sequence": "QVQLVESGGGLVQAGGSLRLSCAASGRTFKGYAMGWYRQAPGKERELVAAISYRGGSTYYADSVKGRFTISRDKAKKTFYLQMNSLKPEDTAVYYCAADIQPYVYDGYPVGMDYWGQGTQVTVSS", "polyreactivity (PSR sort gate)": "high polyreactivity"},
      {"sequence": "QVQLVESGGGLVQAGGSLRLTCAASGFIFKANAMGWYRQAPGKERELVASITFGGDSTYYADSVKGRFTISRDNAKNTVYLHMNSLKPEDTAVYYCNTRRRSYRTYYYWGQGTQVTVLS", "polyreactivity (PSR sort gate)": "low polyreactivity"},
      {"sequence": "QVQLVESGGGLVQAGGSLRLSCAASGRTFVWYAMGWYRHAPGKERELVAAISRSGGSTYYADSVKGRFTISRDNAKNTVYLQMNSLKPEDTAVYYCNAQWYVYDYYEFDYWGQGTQVTVSS", "polyreactivity (PSR sort gate)": "high polyreactivity"},
      {"sequence": "QVQLVESGGGLVQAGGSLRLSCAASGFIFKYNAMGWYRQAPGKERELVAAITSSGGSTYYADSVKGRFTISRDNAKNTVYLQMNSLKPEDTAVYYCNRVRDPSYDYWGQGTQVTVSS", "polyreactivity (PSR sort gate)": "high polyreactivity"},
      {"sequence": "QVQLVESGGGLVQAGGSLRLSCAASGFIFHRNAMGWYRQAPGKERELVAAITRSSTSTYYADSVKGRFTISRDNAKNTVYLQMNSLKPEDTAVYYCNARYPSADDWGQGTQVTVSS", "polyreactivity (PSR sort gate)": "high polyreactivity"},
      {"sequence": "QLQLVESGGGLFQAGGSLRISCAPSGRIFKLNAMGWYRQAPGKEMELVAAINSGTRTYYADSVKGRFTISSYNAKNTVYLQLNSLKPEDTAVYYCAAEGVWWYSRYDYWGQGTQVTVSS", "polyreactivity (PSR sort gate)": "high polyreactivity"},
      {"sequence": "QVQLVESGGGLVQAGGSLRLSCAASGLTFPTYAMGWYRQAPGKERELVAAISRIGGRTYYADSVKGRFTISRDNAKNTFYLQMNSLKPEDTAVYYCAADVIKGCVEYDYWGQGTKVTVSS", "polyreactivity (PSR sort gate)": "high polyreactivity"},
      {"sequence": "QVQLVESGGGLVQAGGSLRLSCAASGRTFTTYAMGWSRQAPGKERELVAAISSGGSTHYADSVKGRFTISRDNAKYTVYLQMNSLKPEDTAVYYCAADKYYYRTSGQEMDYWGQGTQVTVSS", "polyreactivity (PSR sort gate)": "high polyreactivity"},
      {"sequence": "QVQLVESGGGLVQAGGSLRLSCAASGLTFAWYAMGWYRPAPGKERELVATITSGGSTNYADSVKGRFTISRDNAKNTVYLQMNSLKPEDTAVYYCNADYIYYGTTYEYWGQGTQVTVSS", "polyreactivity (PSR sort gate)": "low polyreactivity"},
      {"sequence": "QVQLVESGGGLVQAGGSLRLSCAASGFTFTYYALGGYRQAPGKERELVARIRGRSGSTYYADSVKGRFTISRDNAKNTVYLQMNSLKPEDTAVYYCNADFNRTVAGTPEVDYWGQGTQVTVSS", "polyreactivity (PSR sort gate)": "high polyreactivity"},
      {"sequence": "QVQIVESGGGLVQAAGSLRLSCAASGSTFQTYAMGWYRQAPGKERELVAAITSGGSTNYADSVKGRFTISRDNAKNTVYLQMNSLKPEDTAVSYCAVRQIYQTSDHRLQYDYWGQGTQVTVSS", "polyreactivity (PSR sort gate)": "low polyreactivity"},
      {"sequence": "QVQLVESGGGLVQAGGSLRLSCAASGSNFDLNAMGWYRQAPGKERELVAAISSGGGTYYADSVKGRFTISRDNAKTPVYLQMNSLKPEDTAVYYCNRVTRWTYNYWGQGTQVTVSS", "polyreactivity (PSR sort gate)": "high polyreactivity"},
      {"sequence": "QVQLVESGGGLVQAGGSLRLSCAASGFIFATNNMGWYRQAPGKERELVAASSTYYADSVKGRFTISRDNAKNTVYLQMNSLKPEDTAVYYCNALYRYLYRSGDYWGLGTQVTVSS", "polyreactivity (PSR sort gate)": "low polyreactivity"},
      {"sequence": "QGQLVESGGGLVQAGCSLRLSCAASGSNFYYKAMGWYRQAPRKERELVARISRSGGSTYADSVKGRFTISRDNAKNTVYLQMNSLKPEDTAVYYCNADAYGTPEFTPYSVRYDYWGQGTQVTVSS", "polyreactivity (PSR sort gate)": "low polyreactivity"},
      {"sequence": "QVQLVESGGGLVQAGGSLRLSCAASGLIFSLYAMGWSRQAPGKDRELVADITVDGDGSTYYADSVKGRFTISRDIAKNTVYLQMNSLIPEDTAVYYCAADAYFGWYYYWGQGTQVTVSS", "polyreactivity (PSR sort gate)": "high polyreactivity"},
      {"sequence": "QVQLVETGGGLVKAGGSLRLSCAASGRIFLVNDMGWYRQAPGKERELVARINGGITNYADSVKGRFTISRDNAKNTVYFQMISLKPEDTAVYYCAARSRKYYSYYYWGQGTQLTVSS", "polyreactivity (PSR sort gate)": "high polyreactivity"}
    ]}
  ]
}
